Key:
[1] = biological target: T1, S1P1 receptor peptide RTRSRRLTFRK (SEQ ID NO:169) (not fully specified)
T1 chain: RTRSRRLTFRK

[2] = biological target: T2, WNK1 peptide RRRRHTMDKDSR (SEQ ID NO:190) (not fully specified)
T2 chain: RRRRHTMDKDSR

[3] = biological target: T3, gap-43 peptide SFRGHITRKKLK (SEQ ID NO:207) (not fully specified)
T3 chain: SFRGHITRKKLK

[4] = biological target: T4, NPAT peptide FRASSRSTTK (SEQ ID NO:184) (not fully specified)
T4 chain: FRASSRSTTK

[5] = biological target: T5, ARHGAP4 peptide PLRKSSLKKGGR (SEQ ID NO:193) (not fully specified)
T5 chain: PLRKSSLKKGGR

[6] = biological target: T6, GPR105 peptide KSSRNSTSVKKK (SEQ ID NO:206) (not fully specified)
T6 chain: KSSRNSTSVKKK

[7] = biological target: T7, TIAM1 peptide AMSRSASKRRSR (SEQ ID NO:168) (not fully specified)
T7 chain: AMSRSASKRRSR

[8] = biological target: T8, WNK1 peptide KRHYRKSVRSRS (SEQ ID NO:179) (not fully specified)
T8 chain: KRHYRKSVRSRS

[9] = biological target: T9, MAST3 peptide TQDRRKSLFKKI (SEQ ID NO:201) (not fully specified)
T9 chain: TQDRRKSLFKKI

[10] = biological target: T10, nucleolar phosphoprotein p130 peptide TKKKRGSYRGGS (SEQ ID NO:182) (not fully specified)
T10 chain: TKKKRGSYRGGS

[11] = biological target: T11, SHP-1 peptide DKEKSKGSLKRK (SEQ ID NO:209) (not fully specified)
T11 chain: DKEKSKGSLKRK

[12] = biological target: T12, forkhead (Drosophila)-like 16 peptide RRERSRSRRKQ (SEQ ID NO:176) (not fully specified)
T12 chain: RRERSRSRRKQ

[13] = biological target: T13, ribosomal protein S6 peptide TGERKRKSVRG (SEQ ID NO:181) (not fully specified)
T13 chain: TGERKRKSVRG

[14] = biological target: T14, serine/threonine-protein kinase PRP4 peptide RGRRSRSRLRRR (SEQ ID NO:199) (not fully specified)
T14 chain: RGRRSRSRLRRR

[15] = biological target: T15, SOLH peptide PLRRRESMHVEQ (SEQ ID NO:210) (not fully specified)
T15 chain: PLRRRESMHVEQ

[16] = biological target: T16, LRMP peptide RFSRRSSSWRIL (SEQ ID NO:204) (not fully specified)
T16 chain: RFSRRSSSWRIL

[17] = biological target: T17, PCTK2 peptide KKFKRRLSLTLR (SEQ ID NO:185) (not fully specified)
T17 chain: KKFKRRLSLTLR

[18] = biological target: T18, BRCA1 peptide LRRKSSTRHIHA (SEQ ID NO:187) (not fully specified)
T18 chain: LRRKSSTRHIHA

[19] = biological target: T19, BTK peptide PGSSHRKTKK (SEQ ID NO:195) (not fully specified)
T19 chain: PGSSHRKTKK

[20] = biological target: T20, BTK peptide ERGRRGSKKGSI (SEQ ID NO:188) (not fully specified)
T20 chain: ERGRRGSKKGSI

[21] = biological target: T21, BCL10 peptide SCRTSSRKRAGK (SEQ ID NO:216) (not fully specified)
T21 chain: SCRTSSRKRAGK

[22] = biological target: T22, IDN3 peptide VSRPRKSRKRVD (SEQ ID NO:208) (not fully specified)
T22 chain: VSRPRKSRKRVD

[23] = biological target: T23, NKTR peptide RSRSYSRSRSR (SEQ ID NO:211) (not fully specified)
T23 chain: RSRSYSRSRSR

[24] = biological target: T24, CXCR4 peptide VSRGSSLKILSK (SEQ ID NO:212) (not fully specified)
T24 chain: VSRGSSLKILSK

[25] = biological target: T25, prostaglandin E receptor 4 peptide DFRRRRSFRRIA (SEQ ID NO:186) (not fully specified)
T25 chain: DFRRRRSFRRIA

[26] = biological target: T26, DAP-kinase 1 peptide KKRRTKSSRRGV (SEQ ID NO:175) (not fully specified)
T26 chain: KKRRTKSSRRGV

[27] = biological target: T27, supervillin peptide VMKRKFSLRAAE (SEQ ID NO:202) (not fully specified)
T27 chain: VMKRKFSLRAAE

[28] = biological target: T28, WNK1 peptide RRRRPTKSKGSK (SEQ ID NO:198) (not fully specified)
T28 chain: RRRRPTKSKGSK

[29] = biological target: T29, Lyp peptide ILRPSKSVKLRS (SEQ ID NO:197) (not fully specified)
T29 chain: ILRPSKSVKLRS

[30] = biological target: T30, CLK2 peptide RRRRRRSRTFSR (SEQ ID NO:177) (not fully specified)
T30 chain: RRRRRRSRTFSR

[31] = biological target: T31, CDC2L5 peptide RHSRSRSRHRLS (SEQ ID NO:213) (not fully specified)
T31 chain: RHSRSRSRHRLS

[32] = biological target: T32, MAST4 peptide VRRSKKSKKKES (SEQ ID NO:203) (not fully specified)
T32 chain: VRRSKKSKKKES

[33] = biological target: T33, FLJ20719 peptide RRGRRSTKKRRR (SEQ ID NO:171) (not fully specified)
T33 chain: RRGRRSTKKRRR

[34] = biological target: T34, PSCDBP peptide FLRRSSSRRNRS (SEQ ID NO:180) (not fully specified)
T34 chain: FLRRSSSRRNRS

[35] = biological target: T35, casein kinase I gamma 2 peptide KRRKRKSLQRHK (SEQ ID NO:194) (not fully specified)
T35 chain: KRRKRKSLQRHK

[36] = biological target: T36, HePTP peptide EQQRRALSFRQ (SEQ ID NO:200) (not fully specified)
T36 chain: EQQRRALSFRQ

[37] = biological target: T37, GRK6 peptide GNRKGKSKKWRQ (SEQ ID NO:192) (not fully specified)
T37 chain: GNRKGKSKKWRQ

B1: PKC-theta (protein)
chain: MSPFLRIGLSNFDCGSCQSCQGEAVNPYCAVLVKEYVESENGQMYIQKKPTMYPPWDSTFDAHINKGRVMQIIVKGKNVDLISETTVELYSLAERCRKNNGKTEIWLELKPQGRMLMNARYFLEMSDTKDMNEFETEGFFALHQRRGAIKQAKVHHVKCHEFTATFFPQPTFCSVCHEFVWGLNKQGYQCRQCNAAIHKKCIDKVIAKCTGSAINSRETMFHKERFKIDMPHRFKVYNYKSPTFCEHCGTLLWGLARQGLKCDACGMNVHHRCQTKVANLCGINQKLMAEALAMIESTQQARCLRDTEQIFREGPVEIGLPCSIKNEARPPCLPTPGKREPQGISWESPLDEVDKMCHLPEPELNKERPSLQIKLKIEDFILHKMLGKGSFGKVFLAEFKKTNQFFAIKALKKDVVLMDDDVECTMVEKRVLSLAWEHPFLTHMFCTFQTKENLFFVMEYLNGGDLMYHIQSCHKFDLSRATFYAAEIILGLQFLHSKGIVYRDLKLDNILLDKDGHIKIADFGMCKENMLGDAKTNTFCGTPDYIAPEILLGQKYNHSVDWWSFGVLLYEMLIGQSPFHGQDEEELFHSIRMDNPFYPRWLEKEAKDLLVKLFVREPEKRLGVRGDIRQHPLFREINWEELERKEIDPPFRPKVKSPFDCSNFDKEFLNEKPRLSFADRALINSMDQNMFRNFSFMNPGMERLIS
[1]
  in vitro phosphorylation (% of best substrate): 100
[2]
  in vitro phosphorylation (% of best substrate): 40
[3]
  in vitro phosphorylation (% of best substrate): 18
[4]
  in vitro phosphorylation (% of best substrate): 54
[5]
  in vitro phosphorylation (% of best substrate): 35
[6]
  in vitro phosphorylation (% of best substrate): 19
[7]
  in vitro phosphorylation (% of best substrate): 100
[8]
  in vitro phosphorylation (% of best substrate): 65
[9]
  in vitro phosphorylation (% of best substrate): 25
[10]
  in vitro phosphorylation (% of best substrate): 61
[11]
  in vitro phosphorylation (% of best substrate): 17
[12]
  in vitro phosphorylation (% of best substrate): 66
[13]
  in vitro phosphorylation (% of best substrate): 62
[14]
  in vitro phosphorylation (% of best substrate): 27
[15]
  in vitro phosphorylation (% of best substrate): 16
[16]
  in vitro phosphorylation (% of best substrate): 22
[17]
  in vitro phosphorylation (% of best substrate): 51
[18]
  in vitro phosphorylation (% of best substrate): 48
[19]
  in vitro phosphorylation (% of best substrate): 33
[20]
  in vitro phosphorylation (% of best substrate): 44
[21]
  in vitro phosphorylation (% of best substrate): 11
[22]
  in vitro phosphorylation (% of best substrate): 17
[23]
  in vitro phosphorylation (% of best substrate): 16
[24]
  in vitro phosphorylation (% of best substrate): 13
[25]
  in vitro phosphorylation (% of best substrate): 50
[26]
  in vitro phosphorylation (% of best substrate): 80
[27]
  in vitro phosphorylation (% of best substrate): 24
[28]
  in vitro phosphorylation (% of best substrate): 28
[29]
  in vitro phosphorylation (% of best substrate): 32
[30]
  in vitro phosphorylation (% of best substrate): 66
[31]
  in vitro phosphorylation (% of best substrate): 13
[32]
  in vitro phosphorylation (% of best substrate): 24
[33]
  in vitro phosphorylation (% of best substrate): 92
[34]
  in vitro phosphorylation (% of best substrate): 65
[35]
  in vitro phosphorylation (% of best substrate): 34
[36]
  in vitro phosphorylation (% of best substrate): 26
[37]
  in vitro phosphorylation (% of best substrate): 35
